In the RNAGym collection of RNA variant scans (doi:10.7554/elife.80360):

B1: CPEB3 Ribozyme (parent)
chain: GGGGGCCACAGCAGAAGCGUUCACGUCGCGGCCCCUGUCAGAUUCUGGUGAAUCUGCGAAUUCUGCUGU

Variants of: B1
Experiment: self-cleavage, relative activity (ratio to wild type); higher = more cleavage; co-transcriptional

Variant | self-cleavage
GGGGGCCACAGCAGAAGCGUUCACGUCGCGGCCCCUGUCAGAUUCUUGUGAAUCUGCGAAUUCUGCCGU [G47U U67C] | 1
GGGGGCCACAGCAGAAGCGUUCACGUCGCGGCCCCUGUCAGAUUCUUGUGAAUCUGCGAAUUCUGCUGA [G47U U69A] | 1.02
GGGGGCCACAGCAGAAGCGUUCACGUCGCGGCCCCUGUCAGAUUCUUGUGAAUCUGCGAAUUCUGCUGC [G47U U69C] | 1.06
GGGGGCCACAGCAGAAGCGUUCACGUCGCGGCCCCUGUCAGAUUCUUGUGAAUCUGCGAAUUCUGCUGG [G47U U69G] | 1.05
GGGGGCCACAGCAGAAGCGUUCACGUCGCGGCCCCUGUCAGAUUCUGAUGAAUCUGCGAAUUCUGCUGU [G48A] | 1
GGGGGCCACAGCAGAAGCGUUCACGUCGCGGCCCCUGUCAGAUUCUGAUGCAUCUGCGAAUUCUGCUGU [G48A A51C] | 1
GGGGGCCACAGCAGAAGCGUUCACGUCGCGGCCCCUGUCAGAUUCUGAUGUAUCUGCGAAUUCUGCUGU [G48A A51U] | 0.989
GGGGGCCACAGCAGAAGCGUUCACGUCGCGGCCCCUGUCAGAUUCUGAUGACUCUGCGAAUUCUGCUGU [G48A A52C] | 0.975
GGGGGCCACAGCAGAAGCGUUCACGUCGCGGCCCCUGUCAGAUUCUGAUGAGUCUGCGAAUUCUGCUGU [G48A A52G] | 0.989
GGGGGCCACAGCAGAAGCGUUCACGUCGCGGCCCCUGUCAGAUUCUGAUGAUUCUGCGAAUUCUGCUGU [G48A A52U] | 0.996
GGGGGCCACAGCAGAAGCGUUCACGUCGCGGCCCCUGUCAGAUUCUGAUGAAUCUGCGCAUUCUGCUGU [G48A A59C] | 0.83
GGGGGCCACAGCAGAAGCGUUCACGUCGCGGCCCCUGUCAGAUUCUGAUGAAUCUGCGGAUUCUGCUGU [G48A A59G] | 1.05
GGGGGCCACAGCAGAAGCGUUCACGUCGCGGCCCCUGUCAGAUUCUGAUGAAUCUGCGUAUUCUGCUGU [G48A A59U] | 0.817
GGGGGCCACAGCAGAAGCGUUCACGUCGCGGCCCCUGUCAGAUUCUGAUGAAUCUGCGACUUCUGCUGU [G48A A60C] | 0.434
GGGGGCCACAGCAGAAGCGUUCACGUCGCGGCCCCUGUCAGAUUCUGAUGAAUCUGCGAUUUCUGCUGU [G48A A60U] | 0.516
GGGGGCCACAGCAGAAGCGUUCACGUCGCGGCCCCUGUCAGAUUCUGAUGAAUAUGCGAAUUCUGCUGU [G48A C54A] | 0.998
GGGGGCCACAGCAGAAGCGUUCACGUCGCGGCCCCUGUCAGAUUCUGAUGAAUGUGCGAAUUCUGCUGU [G48A C54G] | 1.02
GGGGGCCACAGCAGAAGCGUUCACGUCGCGGCCCCUGUCAGAUUCUGAUGAAUUUGCGAAUUCUGCUGU [G48A C54U] | 1.01
GGGGGCCACAGCAGAAGCGUUCACGUCGCGGCCCCUGUCAGAUUCUGAUGAAUCUGGGAAUUCUGCUGU [G48A C57G] | 0.31
GGGGGCCACAGCAGAAGCGUUCACGUCGCGGCCCCUGUCAGAUUCUGAUGAAUCUGUGAAUUCUGCUGU [G48A C57U] | 0.374
GGGGGCCACAGCAGAAGCGUUCACGUCGCGGCCCCUGUCAGAUUCUGAUGAAUCUGCGAAUUAUGCUGU [G48A C63A] | 0.932
GGGGGCCACAGCAGAAGCGUUCACGUCGCGGCCCCUGUCAGAUUCUGAUGAAUCUGCGAAUUGUGCUGU [G48A C63G] | 0.898
GGGGGCCACAGCAGAAGCGUUCACGUCGCGGCCCCUGUCAGAUUCUGAUGAAUCUGCGAAUUUUGCUGU [G48A C63U] | 0.959
GGGGGCCACAGCAGAAGCGUUCACGUCGCGGCCCCUGUCAGAUUCUGAUGAAUCUGCGAAUUCUGAUGU [G48A C66A] | 0.877
GGGGGCCACAGCAGAAGCGUUCACGUCGCGGCCCCUGUCAGAUUCUGAUGAAUCUGCGAAUUCUGGUGU [G48A C66G] | 0.942
GGGGGCCACAGCAGAAGCGUUCACGUCGCGGCCCCUGUCAGAUUCUGAUGAAUCUGCGAAUUCUGUUGU [G48A C66U] | 0.99

Variant | self-cleavage
GGGGGCCACAGCAGAAGCGUUCACGUCGCGGCCCCUGUCAGAUUCUGAUAAAUCUGCGAAUUCUGCUGU [G48A G50A] | 0.985
GGGGGCCACAGCAGAAGCGUUCACGUCGCGGCCCCUGUCAGAUUCUGAUCAAUCUGCGAAUUCUGCUGU [G48A G50C] | 0.974
GGGGGCCACAGCAGAAGCGUUCACGUCGCGGCCCCUGUCAGAUUCUGAUUAAUCUGCGAAUUCUGCUGU [G48A G50U] | 0.988
GGGGGCCACAGCAGAAGCGUUCACGUCGCGGCCCCUGUCAGAUUCUGAUGAAUCUACGAAUUCUGCUGU [G48A G56A] | 0.992
GGGGGCCACAGCAGAAGCGUUCACGUCGCGGCCCCUGUCAGAUUCUGAUGAAUCUCCGAAUUCUGCUGU [G48A G56C] | 0.949
GGGGGCCACAGCAGAAGCGUUCACGUCGCGGCCCCUGUCAGAUUCUGAUGAAUCUGCAAAUUCUGCUGU [G48A G58A] | 0.961
GGGGGCCACAGCAGAAGCGUUCACGUCGCGGCCCCUGUCAGAUUCUGAUGAAUCUGCGAAUUCUACUGU [G48A G65A] | 0.992
GGGGGCCACAGCAGAAGCGUUCACGUCGCGGCCCCUGUCAGAUUCUGAUGAAUCUGCGAAUUCUCCUGU [G48A G65C] | 0.81
GGGGGCCACAGCAGAAGCGUUCACGUCGCGGCCCCUGUCAGAUUCUGAUGAAUCUGCGAAUUCUUCUGU [G48A G65U] | 0.914
GGGGGCCACAGCAGAAGCGUUCACGUCGCGGCCCCUGUCAGAUUCUGAUGAAUCUGCGAAUUCUGCUCU [G48A G68C] | 0.98
GGGGGCCACAGCAGAAGCGUUCACGUCGCGGCCCCUGUCAGAUUCUGACGAAUCUGCGAAUUCUGCUGU [G48A U49C] | 0.959
GGGGGCCACAGCAGAAGCGUUCACGUCGCGGCCCCUGUCAGAUUCUGAGGAAUCUGCGAAUUCUGCUGU [G48A U49G] | 1.01
GGGGGCCACAGCAGAAGCGUUCACGUCGCGGCCCCUGUCAGAUUCUGAUGAAUCCGCGAAUUCUGCUGU [G48A U55C] | 0.949
GGGGGCCACAGCAGAAGCGUUCACGUCGCGGCCCCUGUCAGAUUCUGAUGAAUCGGCGAAUUCUGCUGU [G48A U55G] | 0.993
GGGGGCCACAGCAGAAGCGUUCACGUCGCGGCCCCUGUCAGAUUCUGAUGAAUCUGCGAAAUCUGCUGU [G48A U61A] | 0.957
GGGGGCCACAGCAGAAGCGUUCACGUCGCGGCCCCUGUCAGAUUCUGAUGAAUCUGCGAACUCUGCUGU [G48A U61C] | 0.852
GGGGGCCACAGCAGAAGCGUUCACGUCGCGGCCCCUGUCAGAUUCUGAUGAAUCUGCGAAGUCUGCUGU [G48A U61G] | 0.919
GGGGGCCACAGCAGAAGCGUUCACGUCGCGGCCCCUGUCAGAUUCUGAUGAAUCUGCGAAUCCUGCUGU [G48A U62C] | 0.952
GGGGGCCACAGCAGAAGCGUUCACGUCGCGGCCCCUGUCAGAUUCUGAUGAAUCUGCGAAUGCUGCUGU [G48A U62G] | 0.868
GGGGGCCACAGCAGAAGCGUUCACGUCGCGGCCCCUGUCAGAUUCUGAUGAAUCUGCGAAUUCAGCUGU [G48A U64A] | 0.946
GGGGGCCACAGCAGAAGCGUUCACGUCGCGGCCCCUGUCAGAUUCUGAUGAAUCUGCGAAUUCCGCUGU [G48A U64C] | 1
GGGGGCCACAGCAGAAGCGUUCACGUCGCGGCCCCUGUCAGAUUCUGAUGAAUCUGCGAAUUCGGCUGU [G48A U64G] | 0.902
GGGGGCCACAGCAGAAGCGUUCACGUCGCGGCCCCUGUCAGAUUCUGAUGAAUCUGCGAAUUCUGCAGU [G48A U67A] | 1.01
GGGGGCCACAGCAGAAGCGUUCACGUCGCGGCCCCUGUCAGAUUCUGAUGAAUCUGCGAAUUCUGCCGU [G48A U67C] | 0.958
GGGGGCCACAGCAGAAGCGUUCACGUCGCGGCCCCUGUCAGAUUCUGAUGAAUCUGCGAAUUCUGCGGU [G48A U67G] | 1.06
GGGGGCCACAGCAGAAGCGUUCACGUCGCGGCCCCUGUCAGAUUCUGAUGAAUCUGCGAAUUCUGCUGA [G48A U69A] | 1.02

Variant | self-cleavage
GGGGGCCACAGCAGAAGCGUUCACGUCGCGGCCCCUGUCAGAUUCUGAUGAAUCUGCGAAUUCUGCUGC [G48A U69C] | 1.06
GGGGGCCACAGCAGAAGCGUUCACGUCGCGGCCCCUGUCAGAUUCUGCUGAAUCUGCGAAUUCUGCUGU [G48C] | 0.999
GGGGGCCACAGCAGAAGCGUUCACGUCGCGGCCCCUGUCAGAUUCUGCUGGAUCUGCGAAUUCUGCUGU [G48C A51G] | 0.995
GGGGGCCACAGCAGAAGCGUUCACGUCGCGGCCCCUGUCAGAUUCUGCUGACUCUGCGAAUUCUGCUGU [G48C A52C] | 0.994
GGGGGCCACAGCAGAAGCGUUCACGUCGCGGCCCCUGUCAGAUUCUGCUGAGUCUGCGAAUUCUGCUGU [G48C A52G] | 1.04
GGGGGCCACAGCAGAAGCGUUCACGUCGCGGCCCCUGUCAGAUUCUGCUGAUUCUGCGAAUUCUGCUGU [G48C A52U] | 0.971
GGGGGCCACAGCAGAAGCGUUCACGUCGCGGCCCCUGUCAGAUUCUGCUGAAUCUGCGCAUUCUGCUGU [G48C A59C] | 0.797
GGGGGCCACAGCAGAAGCGUUCACGUCGCGGCCCCUGUCAGAUUCUGCUGAAUCUGCGGAUUCUGCUGU [G48C A59G] | 0.989
GGGGGCCACAGCAGAAGCGUUCACGUCGCGGCCCCUGUCAGAUUCUGCUGAAUCUGCGACUUCUGCUGU [G48C A60C] | 0.239
GGGGGCCACAGCAGAAGCGUUCACGUCGCGGCCCCUGUCAGAUUCUGCUGAAUCUGCGAUUUCUGCUGU [G48C A60U] | 0.552
GGGGGCCACAGCAGAAGCGUUCACGUCGCGGCCCCUGUCAGAUUCUGCUGAAUUUGCGAAUUCUGCUGU [G48C C54U] | 1.04
GGGGGCCACAGCAGAAGCGUUCACGUCGCGGCCCCUGUCAGAUUCUGCUGAAUCUGAGAAUUCUGCUGU [G48C C57A] | 0.309
GGGGGCCACAGCAGAAGCGUUCACGUCGCGGCCCCUGUCAGAUUCUGCUGAAUCUGGGAAUUCUGCUGU [G48C C57G] | 0.285
GGGGGCCACAGCAGAAGCGUUCACGUCGCGGCCCCUGUCAGAUUCUGCUGAAUCUGCGAAUUAUGCUGU [G48C C63A] | 0.931
GGGGGCCACAGCAGAAGCGUUCACGUCGCGGCCCCUGUCAGAUUCUGCUGAAUCUGCGAAUUUUGCUGU [G48C C63U] | 0.981
GGGGGCCACAGCAGAAGCGUUCACGUCGCGGCCCCUGUCAGAUUCUGCUGAAUCUGCGAAUUCUGAUGU [G48C C66A] | 0.91
GGGGGCCACAGCAGAAGCGUUCACGUCGCGGCCCCUGUCAGAUUCUGCUGAAUCUGCGAAUUCUGGUGU [G48C C66G] | 0.934
GGGGGCCACAGCAGAAGCGUUCACGUCGCGGCCCCUGUCAGAUUCUGCUAAAUCUGCGAAUUCUGCUGU [G48C G50A] | 1.01
GGGGGCCACAGCAGAAGCGUUCACGUCGCGGCCCCUGUCAGAUUCUGCUCAAUCUGCGAAUUCUGCUGU [G48C G50C] | 0.944
GGGGGCCACAGCAGAAGCGUUCACGUCGCGGCCCCUGUCAGAUUCUGCUUAAUCUGCGAAUUCUGCUGU [G48C G50U] | 1.01
GGGGGCCACAGCAGAAGCGUUCACGUCGCGGCCCCUGUCAGAUUCUGCUGAAUCUACGAAUUCUGCUGU [G48C G56A] | 0.988
GGGGGCCACAGCAGAAGCGUUCACGUCGCGGCCCCUGUCAGAUUCUGCUGAAUCUCCGAAUUCUGCUGU [G48C G56C] | 0.778
GGGGGCCACAGCAGAAGCGUUCACGUCGCGGCCCCUGUCAGAUUCUGCUGAAUCUGCAAAUUCUGCUGU [G48C G58A] | 0.917
GGGGGCCACAGCAGAAGCGUUCACGUCGCGGCCCCUGUCAGAUUCUGCUGAAUCUGCCAAUUCUGCUGU [G48C G58C] | 0.974
GGGGGCCACAGCAGAAGCGUUCACGUCGCGGCCCCUGUCAGAUUCUGCUGAAUCUGCGAAUUCUACUGU [G48C G65A] | 0.926
GGGGGCCACAGCAGAAGCGUUCACGUCGCGGCCCCUGUCAGAUUCUGCUGAAUCUGCGAAUUCUCCUGU [G48C G65C] | 0.775
